# B1: PoxA (enzyme)
# chain: MSETATWQPSASIPNLLKRAAIMAEIRRFFADRGVLEVETPCMSQATVTDIHLFPFETRFVGPGHSQGINLYLMTSPEYHMKRLLAAGCGPVFQLCRSFRNEEMGRHHNPEFTMLEWYRPHYDMYRLMNEVDDLLQQVLDCQPAESLSYQQAFQRHLEIDPLSADKTQLREAAAKLDLSNIADTEEDRDTLLQLLFTMGVEPHIGKEKPTFIYHFPASQASLAQISTEDHRVAERFEVYYKGIELANGFHELTDAREQQQRFEQDNRKRAARGLPQQPIDQNLLDALAAGLPDCSGVALGVDRLVMLALGAESLADVIAFTVDRA
# Target: the molecule itself
# Experiment: crystal structure
protein,measurement,value
B1,binding result,binds

# From article PMC2913146 (Molecular cell, 2010)
